The source of these data is patent US20030233681, “ICE1, a regulator of cold induced transcriptome and freezing tolerance in plants” (Arizona Bd of Regents/Behalf of Univ. of Arizona, published 2003).

Data set [1] concerns the target T1, ICE1 (Arabidopsis thaliana, UniProt Q9LSE2 SEQ:1-494).
T1 sequence: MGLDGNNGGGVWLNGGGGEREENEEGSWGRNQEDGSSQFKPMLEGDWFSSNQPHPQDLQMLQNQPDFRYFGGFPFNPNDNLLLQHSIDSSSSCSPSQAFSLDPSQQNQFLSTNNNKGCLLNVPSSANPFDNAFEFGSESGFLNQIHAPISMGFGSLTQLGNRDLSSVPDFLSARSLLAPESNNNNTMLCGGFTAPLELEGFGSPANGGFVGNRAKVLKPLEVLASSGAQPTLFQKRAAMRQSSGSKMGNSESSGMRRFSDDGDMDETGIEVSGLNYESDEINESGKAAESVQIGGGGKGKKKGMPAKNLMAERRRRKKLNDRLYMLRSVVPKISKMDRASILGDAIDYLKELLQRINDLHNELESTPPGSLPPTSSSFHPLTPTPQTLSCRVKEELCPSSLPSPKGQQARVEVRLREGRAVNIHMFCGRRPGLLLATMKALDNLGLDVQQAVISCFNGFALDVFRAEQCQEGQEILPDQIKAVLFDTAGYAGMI
Nature of the data set: competition; unlabeled non-related competitor does not compete; 50-250 fold excess. The settings on record: tags: His tag N-terminal (pET14b, E. coli BL21 DE3). How it is done: (§1) The wild type and mutant ICE1 cDNAs were amplified by RT-PCR and inserted into NdeI and BamHI sites in the expression vector pET14b (Novagen). Wild-type and mutant His-ICE1 fusion proteins were prepared from E. coli cells (BL21 DE3) according to the instruction manual of His-Bind Buffer Kit (Novagen). The electrophoresis mobility shift assay (EMSA) was carried out as described (Hao et al. 1998). The following double-stranded oligonucleotides listed in FIG. 6A (MYC-1, MYC-2, MYC-3, MYC-4 and MYC-5) were used as probes and competitors in EMSAs. Nucleotide sequences P1 (−949 to −930) and P2 (−909 to −890) were also used as competitors. P1 contains a putative MYB-recognition site. […] DNA probes were end-labeled with [γ-³²P]dCTP using the Klenow fragment and purified through a Sephadex G-50 column. The labeled probes (ca 0.02 pmol) were incubated for 20 min at room temperature with 2.3 μg of purified His-ICE1 fusion protein in 1×binding buffer (Hao et a.1998) supplemented with 20 pmol poly(dI-dC). The resulting DNA-protein complexes were resolved by electrophoresis on a 6% polyacrylamide gel in 0.5×TBE buffer and visualized by autoradiography. For competition experiments, unlabeled competitors were incubated with the His-ICE1 fusion protein on ice for 30 min prior to the addition of labeled probes. […]

The target in data set [2] is T1, ICE1. The experiment in a line: EMSA; several complexes; weaker competitor than MYC-2; also represents MYC-5. The settings on record: tags: His tag N-terminal (pET14b, E. coli BL21 DE3); label: 32P. How it is done: (§2) For competition experiments, unlabeled competitors were incubated with the His-ICE1 fusion protein on ice for 30 min prior to the addition of labeled probes.
(§3) ICE1 has a basic helix-loop-helix (bHLH) domain and its amino acid sequence in the basic region is highly conserved with other bHLH proteins (FIG. 4B), and therefore may recognize promoter elements similar to the DNA-binding sites for known bHLH proteins. These proteins recognize DNA with the consensus sequence CANNTG (Meshi and Iwabuchi 1995). In the promoter region of CBF3, there are five potential MYC-recognition elements within a 1 kb region upstream of the transcription initiation site (Shinwari et al. 1998). These possible MYC-recognition sites, designated MYC-1 through MYC-5, fall into four groups because MYC-3 and MYC-5 share the same consensus sequence, CATTTG (FIG. 6A). Thus, MYC-3 was used to represent both MYC-3 and MYC-5. To determine whether ICE1 binds to these MYC-recognition sites in the CBF3 promoter, we expressed and purified His-ICE1 fusion protein from E. coli. Four DNA fragments encompassing each possible MYC-recognition site were used for interaction with His-ICE1 in an electrophoresis mobility shift assay (EMSA).
(§4) The MYC-2 fragment formed one major complex with ICE1, while the other DNA fragments formed several complexes with ICE1. […]
(In general: In EMSA bound probe runs differently from free probe, usually more slowly.)

The target in data set [3] is T1, ICE1. Nature of the data set: EMSA; one major complex; strongest of the sites by competition; poly(dI-dC), room temperature 20 min. As to conditions: tags: His tag N-terminal (pET14b, E. coli BL21 DE3); label: 32P. Here is the method:
as §1

Data set [4] deals with T2, ice1 (R236H) (Arabidopsis thaliana, UniProt Q9LSE2 SEQ:1-494, R236H).
T2 sequence: T1 sequence with R236H
The experiment in a line: EMSA; R236H mutant still binds. As to conditions: tags: His tag N-terminal (pET14b, E. coli BL21 DE3); label: 32P. How it is done: as §1

Data set [5] deals with T1, ICE1. Nature of the data set: EMSA; several complexes; weaker competitor than MYC-2. The settings on record: tags: His tag N-terminal (pET14b, E. coli BL21 DE3); label: 32P. Here is the method: as §2, §3, §4
Data set [6] deals with T1, ICE1. Nature of the data set: competition; unlabeled competitor with putative MYB site does not compete; 50-250 fold excess. The settings on record: tags: His tag N-terminal (pET14b, E. coli BL21 DE3). How it is done:
as §1

Where a chain is given by its changes, count along the chain named.

B1: P2 (-909 to -890) (dsDNA)
DNA 1: GACTCGTTTCGCGATCCGAT
DNA 2: ATCGGATCGCGAAACGAGTC
As to B1, in data set [1], the binding result is recorded as “no binding”.

B2: MYC-3 (dsDNA)
DNA 1: AATGTTACATTTGATCATTC
DNA 2: GAATGATCAAATGTAACATT
Take B2: in data set [2], the binding result was “binds”.

B3: MYC-2 (dsDNA)
DNA 1: CTCTGGACACATGGCAGATC
DNA 2: GATCTGCCATGTGTCCAGAG
On to B3, for which the binding result in data set [3] and in data set [4] was “binds” each time.

B4: MYC-4 (dsDNA)
DNA 1: ACAATTACAACTGCATGCTT
DNA 2: AAGCATGCAGTTGTAATTGT
Consider B4, for which the binding result in data set [5] was “binds”.

B5: MYC-1 (dsDNA)
DNA 1: CATTTTACAATTGCTTCGCT
DNA 2: AGCGAAGCAATTGTAAAATG
Turning to B5, in data set [5], the binding result is “binds”.

B6: P1 (-949 to -930) (dsDNA)
DNA 1: ATATAATTAACTACTTTTAT
DNA 2: ATAAAAGTAGTTAATTATAT
As to B6, the binding result in data set [6] is given as “no binding”.
